Data set [1] deals with the molecule itself. Description: cryo-EM structure; single-particle cryo-EM at 200 kV (JEM2200FS); purified particles suspended in DMEM; icosahedral reconstruction.
Data set [2] deals with the molecule itself. The experiment in a line: cryo-EM structure; single-particle analysis (RELION) of MNoV-1 VLPs stored in DMEM; three types of particles reconstructed.

Data on two proteins can be found in publication PMC7331980, “Dynamic rotation of the protruding domain enhances the infectivity of norovirus” (PLoS Pathogens, 2020).

B1: VP1 capsid protein of murine norovirus type 1 (MNoV-1), as the capsid of infectious particles (natural protein)
chain: MRMSDGAAPKANGSEASGQDLVPAAVEQAVPIQPVAGAALAAPAAGQINQIDPWIFQNFVQCPLGEFSISPRNTPGEILFDLALGPGLNPYLAHLSAMYTGWVGNMEVQLVLAGNAFTAGKVVVALVPPYFPKGSLTTAQITCFPHVMCDVRTLEPIQLPLLDVRRVLWHATQDQEESMRLVCMLYTPLRTNSPGDESFVVSGRLLSKPAADFNFVYLTPPIERTIYRMVDLPVIQPRLCTHARWPAPVYGLLVDPSLPSNPQWQNGRVHVDGTLLGTTPISGSWVSCFAAEAAYKFQSGTGEVATFTLIEQDGSAYVPGDRAAPLGYPDFSGQLEIEVQTETTKTGDKLKVTTFEMILGPTTNADQAPYQGRVFASVTAAASLDLVDGRVRAVPRSIYGFQDTIPEYNDGLLVPLAPPIGPFLPGEVLLRFRTYMRQIDTADAAAEAIDCALPQEFVSWFASNAFTVQSEALLLRYRNTLTGQLLFECKLYNEGYIALSYSGSGPLTFPTDGIFEVVSWVPRLYQLASVGSLATGRMLKQ
notes: also called MNoV-1 infectious particles; MNoV-1 particles; copies: 180
In the case of B1, the binding result in data set [1] was “binds”.

B2: VP1 capsid protein of murine norovirus type 1 (MNoV-1), as virus-like particles (natural protein, UniProt Q80J94 1-541, looked up)
chain: MRMSDGAAPKANGSEASGQDLVPAAVEQAVPIQPVAGAALAAPAAGQINQIDPWIFQNFVQCPLGEFSISPRNTPGEILFDLALGPGLNPYLAHLSAMYTGWVGNMEVQLVLAGNAFTAGKVVVALVPPYFPKGSLTTAQITCFPHVMCDVRTLEPIQLPLLDVRRVLWHATQDQEESMRLVCMLYTPLRTNSPGDESFVVSGRLLSKPAADFNFVYLTPPIERTIYRMVDLPVIQPRLCTHARWPAPVYGLLVDPSLPSNPQWQNGRVHVDGTLLGTTPISGSWVSCFAAEAAYKFQSGTGEVATFTLIEQDGSAYVPGDRAAPLGYPDFSGQLEIEVQTETTKTGDKLKVTTFEMILGPTTNADQAPYQGRVFASVTAAASLDLVDGRVRAVPRSIYGFQDTIPEYNDGLLVPLAPPIGPFLPGEVLLRFRTYMRQIDTADAAAEAIDCALPQEFVSWFASNAFTVQSEALLLRYRNTLTGQLLFECKLYNEGYIALSYSGSGPLTFPTDGIFEVVSWVPRLYQLASVGSLATGRMLKQ
notes: Major capsid protein VP1 of murine norovirus type 1 (MNoV-1); Formed three types of particles: one large (T = 4) and two small (T = 3, resting and rising P domain conformations), so no single copy number; also called MNoV-1 VLPs; VLPs of MNoV-1; source: baculovirus expression system, purified (CsCl equilibrium ultracentrifugation), stored in DMEM
For the protein B2, the binding result in data set [2] was “binds”.
